System: MS2 coat protein
Assay: apparent KD of MS2 coat protein; higher = weaker reporter binding
Settings: Eterna round: R107; input ligand: theophylline 20 uM
Method: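 RNA-MaP round R107: designed RNA switches with theophylline, tryptophan, arginine or FMN aptamers are transcribed on-chip within common flanks. They are titrated with SNAP-549-labelled MS2 coat protein in RNA-MaP buffer (100 mM Tris pH 7.5, 80 mM KCl, 4 mM MgCl2), without ligand or with the indicated ligand. Median apparent KD per design.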

“ACAUGAGGAUCACCCAUGUGCCGUCUUGAUACCAGACCCGAAGUAGUCCCUUGGCAGCAACUACGUGACGGUCGCCCAUGUGUAG [rremullin]” and “GUCCGACAUGAGGAUCACCCAUGUACUGAAGGAGCGGACAAAUGUCCAGGUAGGUCGCAGCUAUAUGGUGUGGACCGAUCCGGAC [Ustius]” are within 1.5-fold of each other in “apparent KD of MS2 coat protein” value: 20.4 nM for the first, 27.2 nM for the second.

Going from “GAUAUAUACUCGGCCGCCACUGAGAGAGUCAUGUAAACAUGAGGAUCACCCAUGUAAUAUAUAUACAGGACCGGGAGUAUAUUAA [4.C]” to “CAAUAUAUAUGAAGGAGCGACAUGAGGAUCACCCAUGUCUACCACGUCGAAAGACGCUCAUGUCAGGUAGGUCGCAUAUAUAUUG [Astros-Eli-mod4]”, the “apparent KD of MS2 coat protein” value rises from 16.1 nM to 129 nM (8-fold).

Going from “UCGCCCAGAAAGGAUUGCUGGGAUAUGGAAGGAGCGCUGAUGCCAGCAGGUAGGUCGCCAACGGACAUGAGGAUCACCCAUGUAC [Same State - Arginine A (Freestyle 6)]” to “GGUUACUCUACGGCCGCCACUGUAAAGUAAAGAUUACUGUACAUGACAUGAGGAUCACCCAUGUACAGGACCGGGUAGUGUAACC [Tryptophan B 15]”, the “apparent KD of MS2 coat protein” value rises from 28.7 nM to 46.3 nM (1.6-fold).

First: UAAUCAGUGCCGGUUCUCGGAUCCUCAUGUCGAGGACCGGUACGGCCGCCACUCGGAACAUGAGGAUCACCCAUGUAAUAAUAAU [#10 Exclusion Tryptophan A]
Second: GCACAAGAUGGAAGGAGCGCUGGAAAAGGUCACAUGAGGAUCACCCAUGUUCUCCGAACCGAGCAGGUAGGUCGCUAUCUUGUGC [#09 Same State - Arginine B]
The “apparent KD of MS2 coat protein” value of the first is 1.7-fold higher: 101 nM for the first, 59.9 nM for the second.

“UUCAGCUAGUCGGCCGCCACUACCUGAGGAUCACCCUGGUAGGUCCACACUGCUUCGGCAGUGAGUAGGACCGGGACUAGCUGAG” and “UUUUUUAUCAUGGCGUAUCGGAAAACCGAUACCAGUACAGAAAUGUACCCUUGGCAGCGGCGUUUUACAUGAGGAUCACCCAUGU [Ex Theophylline A 4]” are within 1.5-fold of each other in “apparent KD of MS2 coat protein” value: 25.2 nM for the first, 23.7 nM for the second.

Going from “CAAUAUAUAACGGCCGCCACUUACUCAUGAGGUAACAACAUGAGGAUCACCCAUGUUUGAGGAUCAAGGACCGGGUUAUAUAUUG [AstrosSSTry#19]” to “GGGUACAUCGCGGCCGCCACUUAUGUAAAUACAUGAGGAUCACCCAUGUCGAUGGAGACAUCGGAAAGGACCGGGUGAUGUACCG”, the “apparent KD of MS2 coat protein” value rises from 33 nM to 271 nM (8.2-fold).

Going from “UUCAUGAGGAUUGAUACCAGCCACCAACAUGAGGAACUUACAUGAGGAUCACCCAUGUGAGGCCCUUGGCAGCAAGCAUACAUGA [Exclusion Theophylline B 3]” to “AGCUCGCAUCCUCAAAGCGUCAAAGACGCACGAGGACCGGUACGGCCGCCACUCGACCUGAGGAUCACCCUGGUCUAAGCGAGCA [TrypAX 9 #SwitchBubble #AlternativeMS2 #MS2Late #CuTurnoff]”, the “apparent KD of MS2 coat protein” value rises from 16.7 nM to 49.2 nM (2.9-fold).

First: UUAACAUGAGGAUCACCCAUGUUUGAUGAAGGAGCGACCAGAGGGUCAGGUAGGUCGCAUCACAUGAGGAUCACCCAUGUCGCCC [DOUBLE!!! :-D #13]
Second: CGCCCAGUUACGGCCGCCACUUCGAUGGCAAAUGUCGAGCCUCCACAUGAGGAUCACCCAUGUCGAAGGACCGGGUACUGCUUGC [theeternabot_sameState_MS2_Trp_B_17]
The “apparent KD of MS2 coat protein” value of the first is 1.7-fold lower: 26 nM for the first, 44.4 nM for the second.

First: CAUAUAUAUAGAAGGAGCGACAUGAGGAUCACCCAUGUCUACCACGUCGAAAGACGCUCAUGUCAGGUAGGUCGCUAUAUAUAUG [Astros-Eli-mod2]
Second: AUUAACUGGUAAGAUACCAGAGUCGGGAUCUACAUGAGGAUCACCCAUGUUCUAAAGUCGCUCCCUUGGCAGCUUCAAUGAGUCG [theeternabot_sameState_MS2_Theo_B_27]
The “apparent KD of MS2 coat protein” value of the first is 3.4-fold higher: 154 nM for the first, 45.9 nM for the second.

Going from “UGCAUCAUAAUCAUGUAGGUGCUAGGUGAUACCAGCAUCGAAAGAUGCCCUUGGCAGCACCAACAUGAGGAUCACCCAUGUAAUA [(MT)''-(M)'-(T')-(Theo)-(Ms2)_Design1/22_1]” to “UGUAUGUGAUGUGAUACCAGUCCAAUACUGGUAACAUGAGGAUCACCCAUGUAAUGAUGGGACCCUUGGCAGCACAUCGCAUACU [ThBS]”, the “apparent KD of MS2 coat protein” value rises from 186 nM to 347 nM (1.9-fold).

Going from “ACAUUUAACUGAAGGAGCGUGAUAAACAUGAGGAUCACCCAUGUACCAAAGAUUUUCAGUUCACAGGUAGGUCGCAGACUAAUGA [JR_ExcArginiB_Sub016]” to “AUGCUUAUCAGAAGGAGCGUCAUUAACAUGAGGAUCACCCAUGUAACAUUGAAUUCGAUGAGACAGGUAGGUCGCUGAAUAGUAA [SS-ArgB27]”, the “apparent KD of MS2 coat protein” value rises from 13.8 nM to 51.5 nM (3.7-fold).

Compared with “UUGGGUUUGUGAAGGAGCGGGAAAGUUUUAUAGUGAAUCCUAACAUGAGGAUCACCCAUGUCCCAGGUAGGUCGCGCGGGUUUGG [12.Q]”, “GGAGCUACGUCGGCCGCCACUAGCGGAUAUUACGUGUACAUGAGGAUCACCCAUGUAAUACGGUUUAGGACCGGGACGUAGCUCC [Lizard]” is 5.1-fold lower in “apparent KD of MS2 coat protein” value: 115 nM for the first, 22.4 nM for the second.

With “GGACUAACCUGAAGGAGCGGCGCGCAGAAACUGCAAAUUCCUCCACACGAGGAUCACCCGUGUCAGGUAGGUCGCAGGUUAGUCG [ArgBX 28]” the “apparent KD of MS2 coat protein” value was 16.6 nM.

Same assay, conditions: Eterna round: R107; input ligand: theophylline 2 mM

Compared with “AGAGUCUAGUCGGCCGCCACUCAUGUCCGAAGGACAUGAGGAUCACCCAUGUACCAAUGGUACAUGAGGACCGGGACUGGACUCA [Omei Tryp B SS C v3]”, “AGAAAGAAACAAAACUCAAGGAGAACCGAAGGAGCGGCGAAAGAGCCAGGUAGGUCGCGGUCCUCAACAUGAGGAUCACCCAUGU” is 3-fold lower in “apparent KD of MS2 coat protein” value: 559 nM for the first, 186 nM for the second.

Going from “UGUACCUAGUCGGCCGCCACUCAAUAAUGAGAGGAUCACCCUCAUAAACGAGUCAAAGACUCGAUGAGGACCGGGACUAGGUACU [Palindromic MS2 2 #AlternativeMS2 #Palindrome #StaticStem]” to “GGCGCUGCGUCGGCCGCCACUAGUGGGUAAUGGGUGUACAUGAGGAUCACCCAUGUAUUUUGGCCUAGGACCGGGACGUGGCGCC [Oxen]”, the “apparent KD of MS2 coat protein” value rises from 72.7 nM to 570 nM (7.8-fold).

First: CGGCCCUCACUUGAGGAACACCCAAGUGAUACCAGCCUGGAAACAGGCCCUUGGCAGCACUAGGUCAUCAAAGAUGACCAAGCCG [TheoAX 29 #OpenEnded #AlternativeMS2]
Second: AAAUGUGUAAAAGCUUUAACACCCUGAGAAGGAGCGCAAUAAAUUGCAGGUAGGUCGCUCAGACAUGAGGAUCACCCAUGUAACC [Atrabeor]
The “apparent KD of MS2 coat protein” value of the first is 6.2-fold higher: 373 nM for the first, 59.7 nM for the second.

First: AGCCCGGGAGCGGCCGCCACUGGAGGCUGAGCGCGACAUGAGGAUCACCCAUGUGUGCCCGGCGUUAGGACCGGGCUCGCGUGGU [#1 Same State - Tryptophan B Attempt #23 (HarryS)]
Second: GUCCGACAUGAGGAUCACCCAUGUACUGAAGGAGCGGACAAAUGUCCAGGUAGGUCGCAGCUAUAUGGUGUGGACCGAUCCGGAC [Ustius]
The “apparent KD of MS2 coat protein” value of the first is 3.4-fold higher: 79.2 nM for the first, 23.6 nM for the second.

Going from “GAUAUAUACUCGGCCGCCACUGAGAGAGUCAUGUAAACAUGAGGAUCACCCAUGUAAUAUAUAUACAGGACCGGGAGUAUAUUAA [4.C]” to “CAAUAUAUAUGAAGGAGCGACAUGAGGAUCACCCAUGUCUACCACGUCGAAAGACGCUCAUGUCAGGUAGGUCGCAUAUAUAUUG [Astros-Eli-mod4]”, the “apparent KD of MS2 coat protein” value rises from 14 nM to 144 nM (10-fold).

Going from “UCGCCCAGAAAGGAUUGCUGGGAUAUGGAAGGAGCGCUGAUGCCAGCAGGUAGGUCGCCAACGGACAUGAGGAUCACCCAUGUAC [Same State - Arginine A (Freestyle 6)]” to “GGUUACUCUACGGCCGCCACUGUAAAGUAAAGAUUACUGUACAUGACAUGAGGAUCACCCAUGUACAGGACCGGGUAGUGUAACC [Tryptophan B 15]”, the “apparent KD of MS2 coat protein” value rises from 21.1 nM to 35.5 nM (1.7-fold).

Going from “UAAUCAGUGCCGGUUCUCGGAUCCUCAUGUCGAGGACCGGUACGGCCGCCACUCGGAACAUGAGGAUCACCCAUGUAAUAAUAAU [#10 Exclusion Tryptophan A]” to “GCACAAGAUGGAAGGAGCGCUGGAAAAGGUCACAUGAGGAUCACCCAUGUUCUCCGAACCGAGCAGGUAGGUCGCUAUCUUGUGC [#09 Same State - Arginine B]”, the “apparent KD of MS2 coat protein” value falls from 162 nM to 50.7 nM (3.2-fold).

— the supplement of paper PMC9170038
